± gives the standard deviation of the averaged measurements.
Assay: total protein half-life in vivo (active degradation + dilution); higher = more stable protein
[1] = E. coli NCM3722 delta-clpP delta-lon delta-hslV, growth: N-lim chemostat, doubling time 6 h
[2] = E. coli NCM3722 delta-clpP, growth: N-lim chemostat, doubling time 6 h
[3] = E. coli NCM3722 delta-hslV, growth: N-lim chemostat, doubling time 6 h
[4] = E. coli NCM3722 delta-lon, growth: N-lim chemostat, doubling time 6 h
[5] = E. coli NCM3722 delta-smpB, growth: N-lim chemostat, doubling time 6 h
[6] = wild type E. coli NCM3722, growth: C-lim chemostat, doubling time 3 h
[7] = wild type E. coli NCM3722, growth: C-lim chemostat, doubling time 6 h
[8] = wild type E. coli NCM3722, growth: C-lim chemostat, doubling time 12 h
[9] = wild type E. coli NCM3722, growth: N-lim chemostat, doubling time 6 h
[10] = wild type E. coli NCM3722, growth: N-lim chemostat, doubling time 12 h
[11] = wild type E. coli NCM3722, growth: P-lim chemostat, doubling time 6 h
[12] = wild type E. coli NCM3722, growth: P-lim chemostat, doubling time 12 h

Sequence	total protein half-life in vivo [1]	total protein half-life in vivo [2]	total protein half-life in vivo [3]	total protein half-life in vivo [4]	total protein half-life in vivo [5]	total protein half-life in vivo [6]	total protein half-life in vivo [7]	total protein half-life in vivo [8]	total protein half-life in vivo [9]	total protein half-life in vivo [10]	total protein half-life in vivo [11]	total protein half-life in vivo [12]
MIKFSATLLATLIAASVNAATVDLRIMETTDLHSNMMDFDYYKDTATEKFGLVRTASLINDARNEVKNSVLVDNGDLIQGSPLADYMSAKGLKAGDIHPVYKALNTLDYTVGTLGNHEFNYGLDYLKNALAGAKFPYVNANVIDARTKQPMFTPYLIKDTEVVDKDGKKQTLKIGYIGVVPPQIMGWDKANLSGKVTVNDITETVRKYVPEMREKGADVVVVLAHSGLSADPYKVMAENSVYYLSEIPGVNAIMFGHAHAVFPGKDFADIEGADIAKGTLNGVPAVMPGMWGDHLGVVDLQLSNDSGKWQVTQAKAEARPIYDIANKKSLAAEDSKLVETLKADHDATRQFVSKPIGKSADNMYSYLALVQDDPTVQVVNNAQKAYVEHYIQGDPDLAKLPVLSAAAPFKVGGRKNDPASYVEVEKGQLTFRNAADLYLYPNTLIVVKASGKEVKEWLECSAGQFNQIDPNSTKPQSLINWDGFRTYNFDVIDGVNYQIDVTQPARYDGECQMINANAERIKNLTFNGKPIDPNAMFLVATNNYRAYGGKFAGTGDSHIAFASPDENRSVLAAWIADESKRAGEIHPAADNNWRLAPIAGDKKLDIRFETSPSDKAAAFIKEKGQYPMNKVATDDIGFAIYQVDLSK	6.84 ± 0.98 h	6.56 ± 1.5 h	6.23 ± 0.19 h	7.14 ± 0.34 h	5.91 ± 0.18 h	3.34 ± 0.07 h	5.93 ± 0.14 h	12.9 ± 2.1 h	6.327 ± 0.037 h	12.2 ± 1.1 h	5.23 ± 0.31 h	11.212 ± 0.0065 h
MIKKASLLTACSVTAFSAWAQDTSPDTLVVTANRFEQPRSTVLAPTTVVTRQDIDRWQSTSVNDVLRRLPGVDITQNGGSGQLSSIFIRGTNASHVLVLIDGVRLNLAGVSGSADLSQFPIALVQRVEYIRGPRSAVYGSDAIGGVVNIITTRDEPGTEISAGWGSNSYQNYDVSTQQQLGDKTRVTLLGDYAHTHGYDVVAYGNTGTQAQTDNDGFLSKTLYGALEHNFTDAWSGFVRGYGYDNRTNYDAYYSPGSPLLDTRKLYSQSWDAGLRYNGELIKSQLITSYSHSKDYNYDPHYGRYDSSATLDEMKQYTVQWANNVIVGHGSIGAGVDWQKQTTTPGTGYVEDGYDQRNTGIYLTGLQQVGDFTFEGAARSDDNSQFGRHGTWQTSAGWEFIEGYRFIASYGTSYKAPNLGQLYGFYGNPNLDPEKSKQWEGAFEGLTAGVNWRISGYRNDVSDLIDYDDHTLKYYNEGKARIKGVEATANFDTGPLTHTVSYDYVDARNAITDTPLLRRAKQQVKYQLDWQLYDFDWGITYQYLGTRYDKDYSSYPYQTVKMGGVSLWDLAVAYPVTSHLTVRGKIANLFDKDYETVYGYQTAGREYTLSGSYTF	6.44 ± 0.73 h	6.76 ± 0.089 h	6.84 ± 0.059 h	6.49 ± 0.47 h	6.07 ± 0.27 h	3.26 ± 0.15 h	6.12 ± 0.2 h	12.3 ± 0.2 h	6.29 ± 0.28 h	13.5 ± 1.7 h	6.23 ± 0.18 h	12.8 ± 0.14 h
MIKKIFALPVIEQISPVLSRRKLDELDLIVVDHPQVKASFALQGAHLLSWKPAGEEEVLWLSNNTPFKNGVAIRGGVPVCWPWFGPAAQQGLPAHGFARNLPWTLKSHHEDADGVALTFELTQSEETKKFWPHDFTLLAHFRVGKTCEIDLESHGEFETTSALHTYFNVGDIAKVSVSGLGDRFIDKVNDAKENVLTDGIQTFPDRTDRVYLNPQDCSVINDEALNRIIAVGHQHHLNVVGWNPGPALSISMGDMPDDGYKTFVCVETAYASETQKVTKEKPAHLAQSIRVAKR	5.78 ± 0.46 h	5.24 ± 0.6 h	6.17 ± 1.1 h	5.11 ± 0.53 h	5.67 ± 0.29 h			13 ± 1.6 h	5.42 ± 0.3 h	13.7 ± 2.5 h	5.72 ± 0.72 h	12.9 ± 1.8 h
MIKPTFLRRVAIAALLSGSCFSAAAAPPAPPVSYGVEEDVFHPVRAKQGMVASVDATATQVGVDILKEGGNAVDAAVAVGYALAVTHPQAGNLGGGGFMLIRSKNGNTTAIDFREMAPAKATRDMFLDDQGNPDSKKSLTSHLASGTPGTVAGFSLALDKYGTMPLNKVVQPAFKLARDGFIVNDALADDLKTYGSEVLPNHENSKAIFWKEGEPLKKGDTLVQANLAKSLEMIAENGPDEFYKGTIAEQIAQEMQKNGGLITKEDLAAYKAVERTPISGDYRGYQVYSMPPPSSGGIHIVQILNILENFDMKKYGFGSADAMQIMAEAEKYAYADRSEYLGDPDFVKVPWQALTNKAYAKSIADQIDINKAKPSSEIRPGKLAPYESNQTTHYSVVDKDGNAVAVTYTLNTTFGTGIVAGESGILLNNQMDDFSAKPGVPNVYGLVGGDANAVGPNKRPLSSMSPTIVVKDGKTWLVTGSPGGSRIITTVLQMVVNSIDYGLNVAEATNAPRFHHQWLPDELRVEKGFSPDTLKLLEAKGQKVALKEAMGSTQSIMVGPDGELYGASDPRSVDDLTAGY	6.01 ± 0.77 h		5.99 ± 0.16 h		6.24 ± 0.43 h	3.1 ± 0.34 h	5.9124 ± 0.0049 h	12.2 ± 2.3 h	6.219 ± 0.013 h	12.42 ± 0.05 h	5.73 ± 0.52 h	13.2 ± 1.1 h
MIKRVLVVSMVGLSLVGCVNNDTLSGDVYTASEAKQVQNVSYGTIVNVRPVQIQGGDDSNVIGAIGGAVLGGFLGNTVGGGTGRSLATAAGAVAGGVAGQGVQSAMNKTQGVELEIRKDDGNTIMVVQKQGNTRFSPGQRVVLASNGSQVTVSPR [P0A905]	5.26 ± 0.26 h	5.83 ± 0.096 h	6.11 ± 0.62 h	6.23 ± 0.85 h	6.1 ± 0.32 h	2.899 ± 0.023 h	5.41 ± 0.79 h	9.39 ± 0.33 h	5.49 ± 0.094 h	11.5 ± 0.94 h	5.87 ± 0.41 h	11.5 ± 0.73 h

Source: the supplement of paper PMC11246515
